Target: taxol-stabilized porcine microtubules (tubulin purified from porcine brain) (UniProt P02550)
Assay: co-sedimentation

Chain of taxol-stabilized porcine microtubules (tubulin purified from porcine brain) (P02550 whole entry, looked up): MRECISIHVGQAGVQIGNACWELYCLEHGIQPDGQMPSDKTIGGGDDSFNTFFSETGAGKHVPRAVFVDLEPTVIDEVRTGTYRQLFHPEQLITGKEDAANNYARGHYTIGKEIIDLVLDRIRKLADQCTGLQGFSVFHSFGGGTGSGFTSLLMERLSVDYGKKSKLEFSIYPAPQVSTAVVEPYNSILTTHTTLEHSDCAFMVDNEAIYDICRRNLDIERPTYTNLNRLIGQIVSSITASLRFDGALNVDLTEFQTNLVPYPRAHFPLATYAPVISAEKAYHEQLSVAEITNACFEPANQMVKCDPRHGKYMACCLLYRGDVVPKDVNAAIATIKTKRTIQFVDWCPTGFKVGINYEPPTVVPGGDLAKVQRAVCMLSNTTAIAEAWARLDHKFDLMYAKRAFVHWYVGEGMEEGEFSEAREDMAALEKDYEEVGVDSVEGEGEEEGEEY

Substance | apparent Km
recombinant full-length GFP-MNB kinase (Drosophila Minibrain, isoform E) | a Km of 0.96 ± 0.10 μM (mean ± s.d.)
recombinant GFP-B>A-MNB kinase (Basic-to-Acidic mutant, KKKRR 118-122 to EEEDD) | a Km of 4.46 ± 2.62 μM (mean ± s.d.)
